# In publication PMC12403569, “The regulatory network of Coprinopsis cinerea transcription factor Skn7 collaborates with bHLH1 during fungal-fungal interactions”:
# T1: Skn7 DBD (Coprinopsis cinerea, UniProt A8PG35 214-443)
# T1 sequence: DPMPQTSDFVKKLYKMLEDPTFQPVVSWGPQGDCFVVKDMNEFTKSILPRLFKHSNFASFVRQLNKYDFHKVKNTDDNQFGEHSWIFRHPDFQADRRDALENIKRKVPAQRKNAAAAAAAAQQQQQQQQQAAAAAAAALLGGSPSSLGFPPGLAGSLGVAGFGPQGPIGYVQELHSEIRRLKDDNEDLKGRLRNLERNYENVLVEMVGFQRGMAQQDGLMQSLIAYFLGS
# T2: truncated bHLH1 (Coprinopsis cinerea, UniProt A8P5K0 311-490)
# T2 sequence: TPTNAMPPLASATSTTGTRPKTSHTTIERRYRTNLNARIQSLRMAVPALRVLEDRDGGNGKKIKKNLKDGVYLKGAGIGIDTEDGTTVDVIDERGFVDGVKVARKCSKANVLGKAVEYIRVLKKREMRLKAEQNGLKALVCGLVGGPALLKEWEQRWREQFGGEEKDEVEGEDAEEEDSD
# B1: sod2 promoter probe (dsDNA)
# DNA 1: AGAAGGATCTAGAGACTCGG
# DNA 2: CCGAGTCTCTAGATCCTTCT
# B2: lcc9 promoter probe for bHLH1 (dsDNA)
# DNA 1: ATTCATTCTGTCTAGAATGGG
# DNA 2: CCCATTCTAGACAGAATGAAT
# B3: nrps promoter probe (dsDNA)
# DNA 1: TAACCATGTCCAACTCTAAT
# DNA 2: ATTAGAGTTGGACATGGTTA
# B4: gst promoter probe (dsDNA)
# DNA 1: GATGTGTCGACGTCTGA
# DNA 2: TCAGACGTCGACACATC
# B5: lcc9 promoter probe (dsDNA)
# DNA 1: CATTCTGTCTAGAAT
# DNA 2: ATTCTAGACAGAATG
# B6: easA promoter probe (dsDNA)
# DNA 1: TGGTGGACAAGTTTCCGT
# DNA 2: ACGGAAACTTGTCCACCA
# Tests used:
# [1] = biological target: T1, Skn7 DBD; test: EMSA; poly d(I-C); 25 mM HEPES, 4 mM DTT, 100 mM KCl, 2 mM MgCl2, 10% glycerol, 0.01 mg/mL BSA, pH 7.3; 200 ng probe, 200 ng poly d(I-C), 20 µL; temperature not stated; details: protein: recombinant; tags: His-SUMO, removed with Ulp1; label: 5'-6-carboxyfluorescein
# [2] = biological target: T2, truncated bHLH1; test: EMSA; 25 mM HEPES, 4 mM DTT, 100 mM KCl, 2 mM MgCl2, 10% glycerol, 0.01 mg/mL BSA, pH 7.3; 200 ng probe, 200 ng poly d(I-C), 20 µL; temperature not stated; details: protein: recombinant; tags: His; chain copies: 2
Binder,binding result [1],binding result [2]
B1,binds,–
B2,–,binds
B3,binds,–
B4,binds,–
B5,binds,–
B6,binds,–
